Reference: patent US20210063414A1, “METHODS FOR PREVENTING AND/OR TREATING BONE LOSS CONDITIONS BY MODULATING IRISIN” (Dana-Farber Cancer Institute, Inc., priority 2018, published 2021)

Legend:
Test in all cases: Crosslinking/co-immunoprecipitation/mass spectrometry (TMT quantitative proteomics) to identify irisin receptors
Assay type in all cases: binding
[1] = molecular target: T1, MLO-Y4 cell surface proteins (Mus musculus, UniProt Q921G7); details: co-precipitated protein Etfdh (ETFD_MOUSE)
T1 construct: endogenous in cells; host or cells: MLO-Y4
T1 sequence (Q921G7 33-616): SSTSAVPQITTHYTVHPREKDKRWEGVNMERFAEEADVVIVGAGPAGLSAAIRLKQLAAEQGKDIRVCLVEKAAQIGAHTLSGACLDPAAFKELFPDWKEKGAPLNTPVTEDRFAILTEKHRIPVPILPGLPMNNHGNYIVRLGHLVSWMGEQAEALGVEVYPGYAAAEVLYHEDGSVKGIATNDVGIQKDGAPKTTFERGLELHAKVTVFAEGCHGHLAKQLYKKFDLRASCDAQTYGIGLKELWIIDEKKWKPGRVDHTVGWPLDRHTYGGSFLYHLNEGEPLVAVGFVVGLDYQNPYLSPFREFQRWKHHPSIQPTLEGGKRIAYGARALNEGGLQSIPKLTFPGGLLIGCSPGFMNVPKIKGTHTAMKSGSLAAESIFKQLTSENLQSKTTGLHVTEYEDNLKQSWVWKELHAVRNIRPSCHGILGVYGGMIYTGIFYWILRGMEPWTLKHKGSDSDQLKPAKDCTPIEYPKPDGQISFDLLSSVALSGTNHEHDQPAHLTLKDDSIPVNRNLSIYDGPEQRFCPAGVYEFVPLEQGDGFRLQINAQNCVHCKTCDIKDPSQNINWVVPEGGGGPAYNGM
In short: (§1)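 Mouse MLO-Y4 cells were switched to serum-free FreeStyle medium for 4 h, chilled, then exposed to 10 nM His-tagged irisin (or adipsin as control) for 20 min. Cells were crosslinked with 1.5 mM DTSSP (30 min, ice), and bound proteins were pulled down on Ni-NTA and eluted with 250 mM imidazole. Eluates were separated by SDS-PAGE, trypsin-digested in gel, TMT 6-plex labelled and quantified by MS3-based LC-MS/MS on an Orbitrap Fusion Lumos.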

[2] = molecular target: T2, MLO-Y4 cell surface proteins (Mus musculus, UniProt Q9CXD6); details: co-precipitated protein Mcur1 (MCUR1_MOUSE)
T2 construct: endogenous in cells; host or cells: MLO-Y4
T2 sequence (Q9CXD6 1-340): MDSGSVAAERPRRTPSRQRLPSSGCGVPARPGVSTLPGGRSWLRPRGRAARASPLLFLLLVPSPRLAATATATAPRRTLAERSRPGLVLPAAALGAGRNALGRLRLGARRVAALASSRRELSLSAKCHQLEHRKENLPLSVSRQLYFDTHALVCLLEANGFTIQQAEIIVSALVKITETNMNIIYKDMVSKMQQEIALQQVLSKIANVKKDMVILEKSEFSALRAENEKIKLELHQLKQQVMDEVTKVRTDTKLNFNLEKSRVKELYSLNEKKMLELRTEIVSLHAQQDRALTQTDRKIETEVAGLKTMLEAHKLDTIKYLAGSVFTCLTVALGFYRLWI
In short: as §1

[3] = molecular target: T3, MLO-Y4 cell surface proteins (Mus musculus, UniProt Q9JHS4); details: co-precipitated protein Clpx (CLPX_MOUSE)
T3 construct: endogenous in cells; host or cells: MLO-Y4
T3 sequence (Q9JHS4 57-634): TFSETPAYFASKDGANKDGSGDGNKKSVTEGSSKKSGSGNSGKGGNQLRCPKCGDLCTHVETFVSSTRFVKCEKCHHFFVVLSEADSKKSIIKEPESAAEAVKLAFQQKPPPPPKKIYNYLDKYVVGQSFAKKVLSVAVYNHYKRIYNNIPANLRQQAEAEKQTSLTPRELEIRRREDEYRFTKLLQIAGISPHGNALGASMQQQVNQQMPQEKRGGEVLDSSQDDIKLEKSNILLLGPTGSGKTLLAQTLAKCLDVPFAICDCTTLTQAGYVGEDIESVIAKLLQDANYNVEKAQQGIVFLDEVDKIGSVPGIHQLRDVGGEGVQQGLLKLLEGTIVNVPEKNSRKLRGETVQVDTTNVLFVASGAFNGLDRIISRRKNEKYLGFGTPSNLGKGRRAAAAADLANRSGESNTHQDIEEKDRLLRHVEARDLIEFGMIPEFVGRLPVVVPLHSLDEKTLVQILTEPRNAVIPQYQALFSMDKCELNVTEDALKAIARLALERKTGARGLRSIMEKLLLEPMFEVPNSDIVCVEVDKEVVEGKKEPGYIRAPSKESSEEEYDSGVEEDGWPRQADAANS
In short: as §1

[4] = molecular target: T4, MLO-Y4 cell surface proteins (Mus musculus, UniProt Q9WTP6); details: co-precipitated protein Ak2 (KAD2_MOUSE)
T4 construct: endogenous in cells; host or cells: MLO-Y4
In short: as §1

TMT signal-to-noise ratio [1]: 57.6477
TMT signal-to-noise ratio [2]: 1631.69
TMT signal-to-noise ratio [3]: 1517.78
TMT signal-to-noise ratio [4]: 113.461
Substance: adipsin
